Data on 1 molecule can be found in article PMC10778272 (2023).

Assay [1] concerns the target T1, GST-Synm-CT (fusion protein of the carboxy-terminus of synemin, amino acids 1464-1565, with GST) (Homo sapiens (Human), UniProt O15061).
T1 chain: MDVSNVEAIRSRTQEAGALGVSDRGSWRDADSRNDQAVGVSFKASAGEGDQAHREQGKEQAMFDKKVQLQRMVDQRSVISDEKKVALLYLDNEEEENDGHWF
In words: Western blot overlay.

Assay [2] concerns the target T2, GST-Synm-CTΔ (carboxy-terminally truncated synemin, amino acids 1464-1533, fused to GST) (Homo sapiens (Human), UniProt O15061).
T2 chain: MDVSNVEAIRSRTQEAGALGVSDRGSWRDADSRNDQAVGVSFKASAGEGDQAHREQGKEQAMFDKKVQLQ
In words: Western blot overlay. For orientation: A western blot detects proteins with antibodies after separation by electrophoresis.

B1: T7-tagged PDZ domain of SYNPO2 (protein)
chain: MGTGDFICISMTGGAPWGFRLQGGKEQKQPLQVAKIRNQSKASGSGLCEGDEVVSINGNPCADLTYPEVIKLMESITDSLQMLIKRPSSGISEALISENENKNLEHLTHGGYVESTTLQIRPATKTQCTEFFLAPVKTEVPLAENQRSGPDCAGSLKEETGPSYQRAPQMPDSQRGRVAE
Regarding B1, the results for the binding result in assay [1] and in assay [2] were “binds” and “no binding”, respectively.
